Test results published in patent publication US20160031986A1.

Key:
[1] = molecular target: cynomolgus monkey DLL4 extracellular domain (cynomolgus monkey); assay: binding ELISA
[2] = molecular target: cynomolgus monkey DLL4 extracellular domain (cynomolgus monkey); assay: Biacore SPR
[3] = molecular target: cynomolgus monkey DLL4 extracellular domain (cynomolgus monkey); assay: Biacore SPR; head says nM, kd/ka gives M

| EC50 [1] [nM] | koff [2] [s⁻¹] | kon [2] [M⁻¹ s⁻¹] | Kd [3] [nM] | Binder |
| --- | --- | --- | --- | --- |
| – | 0.00162 | 158000 | 10 | h1A11.A12 (antibody, V domains shown) VH: EVQLVESGGGLVQPGGSLRLSCAASGFTFSNFPMAWVRQAPGKGLEWVATISSSDGTTYYRDSVKGRFTISRDNAKNSLYLQMNSLRAEDTAVYYCARGYYNSPFAYWGQGTLVTVSS VL: DIQMTQSPSSLSASVGDRVTITCRASQDIYYNLAWYQQKPGKSPKLLIFDTSSLADGVPSRFSGSGSGTDFTLTISSLQPEDFATYFCQQYDWYPPTFGQGTKLEIK |
| – | 2e-05 | 118000 | 0.17 | h1A11.F5 (antibody, V domains shown) VH: EVQLVESGGGLVQPGGSLRLSCAASGFTFRHFPMAWVRQAPGKGLEWVATISSSDAWPSYRDSVKGRFTISRDNAKNSLYLQMNSLRAEDTAVYYCARGYYNSPFAYWGQGTLVTVSS VL: DIQMTQSPSSLSASVGDRVTITCRASQEIYRNLAWYQQKPGKSPKLLIFDTSVLADGVPSRFSGSGSGTDSTLTISSLQPEDFATYYCQQYTYYPPTFGQGTKLEIK |
| – | 3.84e-05 | 137000 | 0.28 | h1A11.E12 (antibody, V domains shown) VH: EVQLVESGGGLVQPGGSLRLSCAASGFTFRYFPMAWVRQAPGKGLEWVATISGSDEWPNYRDSVKGRFTISRDNAKNSLYLQMNSLRAEDTAVYYCARGYYNSPFAFWGQGTLVTVSS VL: DIQMTQSPSSLSASVGDRVTITCRASQEIYRNLAWYQQKPGKSPKLLIFDTSVLADGVPSRFSGSGSGTDSTLTISSLQPEDFATYYCQQYTYYPPTFGQGTKLEIK |
| – | 3.12e-05 | 171000 | 0.18 | h1A11.C6 (antibody, V domains shown) VH: EVQLVESGGGLVQPGGSLRLSCAASGFTFRNFPMAWVRQAPGKGLEWVATISSSDGWPTYRDSVKGRFTISRDNAKSSLYLQMNSLRAEDTAVYYCSRGYYNSPFAYWGQGTLVTVSS VL: DIQMTQSPSSLSASVGDRVTITCRASEDIYSNLAWYQQKPGKAPKLLIYDTNNLADGVPSRFSGSGSGTDFTLTISSLQPEDFATYYCQQYNNYPPTFGQGTKLEIK |
| – | 0.00099 | 143000 | 6.9 | h1A11.B4 (antibody, V domains shown) VH: EVQLVESGGGLVQPGGSLRLSCAASGFTFSNFPMAWVRQAPGKGLEWVATISSSDGTTYYRDSVKGRFTISRDNAKNSLYLQMNSLRAEDTAVYYCARGYYNSPFAYWGQGTLVTVSS VL: DIQMTQSPSSLSASVGDRVTITCRASQDIYYNLAWYQQKPGKAPKLLIFDTNILADGVPSRFSGSGSGTDFTLTISSLQPEDFATYFCQQYDYVPPTFGQGTKLEIK |
| – | 1.73e-05 | 99000 | 0.17 | h1A11.G3 (antibody, V domains shown) VH: EVQLVESGGGLVQPGGSLRLSCAASGFTFRYFPMSWVRQAPGKGLEWVASISGSDGWASYRDSVKGRFTISRDNAKNSLYLQMNSLRAEDTAVYYCARGYYNSPFAYWGQGTLVTVSS VL: DIQMTQSPSSLSASVGDRVTITCRASQEIYRNLAWYQQKPGKSPKLLIFDTSVLADGVPSRFSGSGSGTDSTLTISSLQPEDFATYYCQQYTYYPPTFGQGTKLEIK |
| – | 0.000178 | 117000 | 1.5 | h1A11.B5 (antibody, V domains shown) VH: EVQLVESGGGLVQPGGSLRLSCAASGFTFRYFPMSWVRQAPGKGLEWVASISGSDGWASYRDSVKGRFTISRDNAKNSLYLQMNSLRAEDTAVYYCARGYYNSPFASWGQGTLVTVSS VL: DIQMTQSPSSLSASVGDRVTITCRASQDIWNNLAWYQQKPGKSPKLLIFDTSYLADGVPSRFSGSGSGTDFTLTISSLQPEDFATYYCQQYDWYPPTFGQGTKLEIK |
| – | 4.6e-05 | 131000 | 0.35 | h1A11.H2 (antibody, V domains shown) VH: EVQLVESGGGLVQPGGSLRLSCAASGFTFGNFPMSWVRQAPGKGLEWVASISSSDSWATIGDSVKGRFTISRDNAKNSLYLQMNSLRAEDTAVYYCARGYYNSPFAFWGQGTLVTVSS VL: DIQMTQSPSSLSASVGDRVTITCRASQEIYRNLAWYQQKPGKSPKLLIFDTSVLADGVPSRFSGSGSGTDSTLTISSLQPEDFATYYCQQYTYYPPTFGQGTKLEIK |

Further lines, the binder ahead of its results:

| Binder | EC50 [1] [nM] | koff [2] [s⁻¹] | kon [2] [M⁻¹ s⁻¹] | Kd [3] [nM] |
| --- | --- | --- | --- | --- |
| 1A11 chimeric antibody (antibody, V domains shown) VH: EVQLVESGGGLVQPGRSMKLSCAASGFTFRNFPMAWVRQAPTRGLEWVATISSSDGTTYYRDSVKGRFTISRDNAKSTLYLQVNSLRSEDTATYYCSRGYYNSPFAYWGQGTLVTVSS VL: DIQMTQSPASLSASLGETVTIECRASEDIYSNLAWYQQKPGNSPQLLIFDTNNLADGVPSRFSGSGSGTQSSLKINSLQSEDVASYFCQQYNNYPPTFGGGTKLELKR | 0.33 | – | – | – |
| h1A11.1 (antibody, V domains shown) VH: EVQLVESGGGLVQPGGSLRLSCAASGFTFSNFPMAWVRQAPGKGLEWVATISSSDGTTYYRDSVKGRFTISRDNAKNSLYLQMNSLRAEDTAVYYCARGYYNSPFAYWGQGTLVTVSS VL: DIQMTQSPSSLSASVGDRVTITCRASEDIYSNLAWYQQKPGKAPKLLIYDTNNLADGVPSRFSGSGSGTDFTLTISSLQPEDFATYYCQQYNNYPPTFGQGTKLEIKR | 0.13 | 0.00255 | 144000 | 18 |
| h1A11.A7 (antibody, V domains shown) VH: EVQLVESGGGLVQPGGSLRLSCAASGFTFSNFPMAWVRQAPGKGLEWVATISSSDGTTYYRDSVKGRFTISRDNAKNSLYLQMNSLRAEDTAVYYCARGYYNSPFAYWGQGTLVTVSS VL: DIQMTQSPSSLSASVGDRVTITCRASQDIYINLAWYQQKPGKAPKLLIFDTSDLADGVPSRFSGSGSGTDFTLTISSLQPEDFATYYCQQYDYYPPTFGQGTKLEIK | – | 0.00124 | 158000 | 7.8 |
| h1A11.A6 (antibody, V domains shown) VH: EVQLVESGGGLVQPGGSLRLSCAASGFTFRHFPMAWVRQAPGKGLEWVATISSSDAWPSYRDSVKGRFTISRDNAKNSLYLQMNSLRAEDTAVYYCSRGYYNSPFAYWGQGTLVTVSS VL: DIQMTQSPSSLSASVGDRVTITCRASEDIYSNLAWYQQKPGKAPKLLIYDTNNLADGVPSRFSGSGSGTDFTLTISSLQPEDFATYYCQQYNNYPPTFGQGTKLEIK | – | 2.1e-05 | 171000 | 0.12 |
| h1A11.A11 (antibody, V domains shown) VH: EVQLVESGGGLVQPGGSLRLSCAASGFTFRHFPMAWVRQAPGKGLEWVATISSSDDWPNYRDSVKGRFTISRDNAKSSLYLQMNSLRAEDTAVYYCSRGYYNSPFAYWGQGTLVTVSS VL: DIQMTQSPSSLSASVGDRVTITCRASEDIYSNLAWYQQKPGKAPKLLIYDTNNLADGVPSRFSGSGSGTDFTLTISSLQPEDFATYYCQQYNNYPPTFGQGTKLEIK | – | 3.35e-05 | 170000 | 0.2 |
| h1A11.16 (antibody, V domains shown) VH: EVQLVESGGGLVQPGGSLRLSCAASGFTFSNFPMAWVRQAPGKGLEWVATISSSDGTTYYRDSVKGRFTISRDNSKSTLYLQMNSLRAEDTAVYYCSRGYYNSPFAYWGQGTLVTVSS VL: EIVMTQSPATLSVSPGERATLSCRASEDIYSNLAWYQQKPGQSPRLLIFDTNNLADGVPARFSGSGSGTESTLTISSLQSEDFAVYFCQQYNNYPPTFGQGTKLEIKR | 0.12 | – | – | – |
| h1A11.A8 (antibody, V domains shown) VH: EVQLVESGGGLVQPGGSLRLSCAASGFTFGNFPMSWVRQAPGKGLEWVASISSSDSWATIGDSVKGRFTISRDNAKNSLYLQMNSLRAEDTAVYYCSRGYYNSPFAYWGQGTLVTVSS VL: DIQMTQSPSSLSASVGDRVTITCRASEDIYSNLAWYQQKPGKAPKLLIYDTNNLADGVPSRFSGSGSGTDFTLTISSLQPEDFATYYCQQYNNYPPTFGQGTKLEIK | – | 2.4e-05 | 160000 | 0.15 |
| h1A11.A2 (antibody, V domains shown) VH: EVQLVESGGGLVQPGGSLRLSCAASGFTFSNFPMAWVRQAPGKGLEWVATISSSDGTTYYRDSVKGRFTISRDNAKNSLYLQMNSLRAEDTAVYYCARGYYNSPFAYWGQGTLVTVSS VL: DIQMTQSPSSLSASVGDRVTITCRASQDIYINLAWYQQKPGKSPKLLIFDTNDLADGVPSRFSGSGSGTDFTLTISSLQPEDFATYYCQQYDYVPPTFGQGTKLEIK | – | 0.000527 | 134000 | 3.9 |
